# B1: LIM domain and actin-binding protein 1 (Mus musculus), Q9ERG0-1 (parent)
# chain: MESTPFNRRQWTSLSLRVTAKELSLVNKNKSSAIVEIFSKYQKAAEEANMERKKNNPESLPQHFRRGTLSVLKKKWENPVAGAEFHTDSLPNSSSEGGHTADYPPAEVTDKPAPGVRADREEHTQPKPRFGSRPEAVIQSRYPRSENSHDFKAQATESQKMENCLGDSRHEAEKPETSENTETSGKIEKYNVPLNRLKMMFEKGEHNQTKSLWTQSRNAGGRRLSENNCSLDDWEIGAGHLSSSAFNSEKNESKRNLELPRLSETSIKDRMAKYQAAVSKQSSPASYTNELKTSESKTHKWEQKENVPPGPEACSVHQEGSKVSTTENSLVALSVPAEDDTCNSQVKSEAQQPMHPKPLSPDARTSSLPESSPSKTAKKFQAPAKESCVECQKTVYPMERLLANQQVFHISCFRCSYCNNKLSLGTYASLHGRIYCKPHFNQLFKSKGNYDEGFGHKQHKDLWASKSDNEETLGRPAQPPNAGESPHSPGVEDAPIAKVGVLAASMEAKASSQREREDKPAETKKLRIAWPPPAELGGSGSALEEGIKVSKPKWPPEDDVCKTEAPEDVDLDLKKLRRSSSLKERSRPFTVAASFRTSSIKSPKASSPSLRKGWSESEQSEEFGGGIATMERKQTENARPSGEKENVGKSRWQGEEVPRSKDRSSFELESENFMENGANIAEDDNHVHAQQSPLEPEAPGWSGFVDTTAAKEFTTQNQKSQDVGFWEGEVVRELSVEEQIKRNRYYDEDEDEE
# partner: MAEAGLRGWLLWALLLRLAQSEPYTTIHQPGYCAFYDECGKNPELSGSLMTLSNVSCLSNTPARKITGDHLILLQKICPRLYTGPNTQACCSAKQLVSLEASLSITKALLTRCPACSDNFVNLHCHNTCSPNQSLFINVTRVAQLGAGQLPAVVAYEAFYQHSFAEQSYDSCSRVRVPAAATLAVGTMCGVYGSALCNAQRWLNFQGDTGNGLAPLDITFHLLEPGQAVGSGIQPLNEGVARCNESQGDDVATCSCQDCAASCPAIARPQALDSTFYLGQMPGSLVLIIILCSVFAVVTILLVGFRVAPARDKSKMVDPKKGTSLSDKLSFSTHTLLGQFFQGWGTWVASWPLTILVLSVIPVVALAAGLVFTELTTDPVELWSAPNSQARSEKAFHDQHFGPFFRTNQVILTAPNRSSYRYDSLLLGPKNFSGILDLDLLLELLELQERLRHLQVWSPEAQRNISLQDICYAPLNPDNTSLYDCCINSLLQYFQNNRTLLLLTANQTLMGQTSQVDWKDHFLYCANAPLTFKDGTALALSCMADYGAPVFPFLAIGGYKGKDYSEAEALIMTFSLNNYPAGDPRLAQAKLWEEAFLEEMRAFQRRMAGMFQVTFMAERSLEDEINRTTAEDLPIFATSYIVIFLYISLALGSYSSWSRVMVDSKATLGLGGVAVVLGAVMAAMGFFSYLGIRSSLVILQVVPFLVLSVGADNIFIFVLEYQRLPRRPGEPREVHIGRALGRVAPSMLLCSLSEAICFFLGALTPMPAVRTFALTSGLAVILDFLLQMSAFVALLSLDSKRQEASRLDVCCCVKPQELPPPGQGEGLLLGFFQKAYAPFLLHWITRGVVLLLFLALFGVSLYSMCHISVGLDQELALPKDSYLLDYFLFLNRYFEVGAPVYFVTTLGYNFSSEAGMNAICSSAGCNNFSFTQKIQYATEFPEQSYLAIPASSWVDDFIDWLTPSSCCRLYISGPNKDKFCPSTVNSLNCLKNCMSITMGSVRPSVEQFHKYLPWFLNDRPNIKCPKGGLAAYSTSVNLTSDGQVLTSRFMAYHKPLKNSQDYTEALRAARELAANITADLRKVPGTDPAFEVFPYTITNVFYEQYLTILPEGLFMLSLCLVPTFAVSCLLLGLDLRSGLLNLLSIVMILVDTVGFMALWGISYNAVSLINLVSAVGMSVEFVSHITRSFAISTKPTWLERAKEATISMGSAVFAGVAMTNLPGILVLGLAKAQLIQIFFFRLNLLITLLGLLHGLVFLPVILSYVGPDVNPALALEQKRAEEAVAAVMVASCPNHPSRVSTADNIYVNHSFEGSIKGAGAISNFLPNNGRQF
# B2: NPC1-like intracellular cholesterol transporter 1 (Homo sapiens), Q9UHC9-2 (parent)
# chain: B1 partner
# Variants of: B1
# Conditions: with NPC1L1, Q9UHC9-2
row,effect of a mutation on the interaction,Variant
1,disrupting interaction,C164A;L165A;G166A

# Variants of: B1
# Conditions: with NPC1L1, Q9UHC9-2
# Remark: another data set of the same source
row,effect of a mutation on the interaction,Variant
1,disrupting interaction strength,C164A;L165A;G166A

# Variants of: B2
# Conditions: with Lima1, Q9ERG0-1
row,effect of a mutation on the interaction,Variant
1,disrupting interaction,Q1277A;K1278A;R1279A

# — IntAct's records for PubMed 29880681
